In the Human Domainome abundance scans (Beltran et al. 2025):
± gives the uncertainty stated by the source.

Assay: abundance fitness (aPCA) (normalised: wild type 0, dead -1); higher = more abundant; growth selection in yeast, the domain comes from the species named
Conditions: Homo sapiens

In order of rising abundance fitness:
1. SAFB-like transcription modulator R37A, Q9NWH9  -1.09 ± 0.091
2. SAFB-like transcription modulator D29K, Q9NWH9  -1.06 ± 0.33
3. SAFB-like transcription modulator K21W, Q9NWH9  -0.982 ± 0.12
4. SAFB-like transcription modulator E33D, Q9NWH9  -0.916 ± 0.16
5. SAFB-like transcription modulator E33K, Q9NWH9  -0.89 ± 0.18
6. BAG family molecular chaperone regulator 3 D41E, O95817  -0.874 ± 0.2
7. BAG family molecular chaperone regulator 3 D41S, O95817  -0.868 ± 0.27
8. BAG family molecular chaperone regulator 3 P23S, O95817  -0.864 ± 0.26
9. BAG family molecular chaperone regulator 3 D20Q, O95817  -0.789 ± 0.33
10. SAFB-like transcription modulator L39D, Q9NWH9  -0.755 ± 0.075
11. BAG family molecular chaperone regulator 3 H42E, O95817  -0.738 ± 0.33
12. SAFB-like transcription modulator K45L, Q9NWH9  -0.731 ± 0.056
13. SAFB-like transcription modulator R51V, Q9NWH9  -0.73 ± 0.19
14. SAFB-like transcription modulator D62M, Q9NWH9  -0.69 ± 0.081
15. BAG family molecular chaperone regulator 3 T34P, O95817  -0.688 ± 0.14
16. BAG family molecular chaperone regulator 3 S44F, O95817  -0.682 ± 0.29
17. SAFB-like transcription modulator G60W, Q9NWH9  -0.658 ± 0.047
18. BAG family molecular chaperone regulator 3 W26D, O95817  -0.621 ± 0.37
19. SAFB-like transcription modulator L34V, Q9NWH9  -0.614 ± 0.068
20. SAFB-like transcription modulator K31S, Q9NWH9  -0.613 ± 0.061
21. SAFB-like transcription modulator I22K, Q9NWH9  -0.576 ± 0.072
22. SAFB-like transcription modulator R26C, Q9NWH9  -0.57 ± 0.14
23. SAFB-like transcription modulator R51T, Q9NWH9  -0.57 ± 0.13
24. SAFB-like transcription modulator R51I, Q9NWH9  -0.542 ± 0.22
25. BAG family molecular chaperone regulator 3 S14F, O95817  -0.528 ± 0.28
26. SAFB-like transcription modulator Q54S, Q9NWH9  -0.526 ± 0.1
27. BAG family molecular chaperone regulator 3 F38G, O95817  -0.503 ± 0.14
28. SAFB-like transcription modulator L39Q, Q9NWH9  -0.499 ± 0.11
29. SAFB-like transcription modulator L52D, Q9NWH9  -0.497 ± 0.05
30. SAFB-like transcription modulator P63Q, Q9NWH9  -0.48 ± 0.082
31. BAG family molecular chaperone regulator 3 D31K, O95817  -0.477 ± 0.28
32. SAFB-like transcription modulator D24F, Q9NWH9  -0.466 ± 0.033
33. SAFB-like transcription modulator V47F, Q9NWH9  -0.447 ± 0.044
34. SAFB-like transcription modulator T42N, Q9NWH9  -0.442 ± 0.16
35. BAG family molecular chaperone regulator 3 E57Y, O95817  -0.44 ± 0.13
36. BAG family molecular chaperone regulator 3 D20W, O95817  -0.42 ± 0.15
37. BAG family molecular chaperone regulator 3 S56H, O95817  -0.411 ± 0.37
38. BAG family molecular chaperone regulator 3 N50G, O95817  -0.358 ± 0.13
39. BAG family molecular chaperone regulator 3 T48I, O95817  -0.354 ± 0.14
40. SAFB-like transcription modulator K53G, Q9NWH9  -0.35 ± 0.089
41. SAFB-like transcription modulator E67Q, Q9NWH9  -0.35 ± 0.1
42. BAG family molecular chaperone regulator 3 R19C, O95817  -0.341 ± 0.19
43. BAG family molecular chaperone regulator 3 K29S, O95817  -0.313 ± 0.11
44. BAG family molecular chaperone regulator 3 T46I, O95817  -0.285 ± 0.21
45. BAG family molecular chaperone regulator 3 S14P, O95817  -0.269 ± 0.19
46. BAG family molecular chaperone regulator 3 D51H, O95817  -0.262 ± 0.42
47. SAFB-like transcription modulator K31W, Q9NWH9  -0.237 ± 0.053
48. SAFB-like transcription modulator V44K, Q9NWH9  -0.233 ± 0.088
49. BAG family molecular chaperone regulator 3 Q11L, O95817  -0.227 ± 0.32
50. SAFB-like transcription modulator I49T, Q9NWH9  -0.223 ± 0.072
51. BAG family molecular chaperone regulator 3 W49E, O95817  -0.221 ± 0.12
52. SAFB-like transcription modulator K20Q, Q9NWH9  -0.193 ± 0.091
53. SAFB-like transcription modulator S32Y, Q9NWH9  -0.173 ± 0.09
54. SAFB-like transcription modulator L68S, Q9NWH9  -0.16 ± 0.063
55. SAFB-like transcription modulator K31T, Q9NWH9  -0.143 ± 0.043
56. BAG family molecular chaperone regulator 3 S56C, O95817  -0.13 ± 0.18
57. BAG family molecular chaperone regulator 3 G25H, O95817  -0.125 ± 0.065
58. SAFB-like transcription modulator K31H, Q9NWH9  -0.102 ± 0.083
59. SAFB-like transcription modulator V47N, Q9NWH9  -0.079 ± 0.045
60. SAFB-like transcription modulator D64T, Q9NWH9  -0.076 ± 0.04
61. SAFB-like transcription modulator K35R, Q9NWH9  -0.023 ± 0.041
62. BAG family molecular chaperone regulator 3 F38H, O95817  -0.014 ± 0.15
63. SAFB-like transcription modulator T46C, Q9NWH9  0.066 ± 0.074
64. BAG family molecular chaperone regulator 3 N16C, O95817  0.113 ± 0.14
65. BAG family molecular chaperone regulator 3 P37W, O95817  0.115 ± 0.086
66. SAFB-like transcription modulator V44H, Q9NWH9  0.126 ± 0.089
67. BAG family molecular chaperone regulator 3 A13T, O95817  0.169 ± 0.2
68. BAG family molecular chaperone regulator 3 A13K, O95817  0.174 ± 0.17
69. BAG family molecular chaperone regulator 3 Q11T, O95817  0.18 ± 0.49
70. BAG family molecular chaperone regulator 3 I28N, O95817  0.206 ± 0.3
71. SAFB-like transcription modulator G19Y, Q9NWH9  0.212 ± 0.24
72. BAG family molecular chaperone regulator 3 A13D, O95817  0.279 ± 0.07
73. BAG family molecular chaperone regulator 3 P32T, O95817  0.423 ± 0.071
74. BAG family molecular chaperone regulator 3 T34S, O95817  0.579 ± 0.089
75. BAG family molecular chaperone regulator 3 G15C, O95817  0.649 ± 0.079
76. BAG family molecular chaperone regulator 3 P37R, O95817  0.857 ± 0.077
77. BAG family molecular chaperone regulator 3 G17N, O95817  0.913 ± 0.13
